Assay results published in PMC9098913, “In vitro reconstitution of Escherichia coli divisome activation” (Nature Communications, 2022).

Columns and labels:
[1] = test system: FtsZ
Procedure, shortened: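 Cy5-labelled His-tagged FtsA variants (0.5–1 µM) tethered to supported membranes via Tris-NTA lipids, with Tris-NTA density set by mixing SUVs; FRET/FRAP used equimolar Cy3/Cy5 FtsA. FtsZ–FtsA co-treadmilling imaged as dual-colour videos at one frame per 2 s; dynamics and colocalization quantified by automated image subtraction analysis.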

[2] = Membrane off-binding rate (koff) of FtsA from FRAP; design: Off binding rate koff: unit not given here; settings: Fig. S4i, summary value
Procedure, shortened: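 Equimolar Cy3- and Cy5-labelled FtsA plus 20% unlabelled FtsA on membrane; a rectangular ROI is bleached with the 641 nm laser and recovery imaged at one or two frames per second. Diffusion coefficient and off-rate are separated by fitting the shape of the recovery profile, using the change in slope at the bleach borders.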

[3] = test system: FtsZ; settings: […] Tris-NTA; p-value 3.86 × 10^−4; three repeats
Procedure, shortened: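 Cy5-labelled His-tagged FtsA (0.5–1 µM) bound to Tris-NTA-containing supported membranes, 20 min, washed; FtsA density set by Tris-NTA fraction. Time-lapse images drift-corrected; colocalization with FtsZ as Pearson's coefficient, FtsZ/FtsA ratio from linear-regression slope of intensity scatterplots.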

B1: FtsA R286W-His6: FtsA R286W (1-405) with amphipathic helix replaced by C-terminal His-tag (protein)
chain: MIKATDRKLVVGLEIGTAKVAALVGEVLPDGMVNIIGVGSCPSRGMDKGGVNDLESVVKCVQRAIDQAELMADCQISSVYLALSGKHISCQNEIGMVPISEEEVTQEDVENVVHTAKSVRVRDEHRVLHVIPQEYAIDYQEGIKNPVGLSGVRMQAKVHLITCHNDMAKNIVKAVERCGLKVDQLIFAGLASSYSVLTEDERELGVCVVDIGGGTMDIAVYTGGALRHTKVIPYAGNVVTSDIAYAFGTPPSDAEAIKVRHGCALGSIVGKDESVEVPSVGGRPPWSLQRQTLAEVIEPRYTELLNLVNEEILQLQEKLRQQGVKHHLAAGIVLTGGAAQIEGLAACAQRVFHTQVRIGAPLNITGLTDYAQEPYYSTAVGLLHYGKESHLNGEAEVEKRVTASV
modifications: Cy3 or Cy5 at the N-terminus in the labelled form (sortagging as for native FtsA); left off: TwinStrep-SUMO, N-terminal, cleaved | 5xGlycine tag, N-terminal, kept | His6, C-terminal, kept
In the case of B1, the “co-treadmilling with FtsZ, reduction compared to the reversibly membrane-binding protein” value ([1]; […] Tris-NTA R286W-His6 vs 0.8 µM R286W) is reported as “about 50%”, the “PCCdiff His-tagged FtsA/FtsZ” value ([1]; […] Tris-NTA, p-value […] 10^−4 (vs WT-His6), 7.78 × 10^−5 (vs R286W), three repeats) is reported as 0.36 ± 0.02 and the “Off binding rate koff” value ([2]; 0.10 % Tris-NTA lipids, + FtsZ) is reported as 0.0533. For the same molecule, the “Off binding rate koff” value ([2]; 0.10 % Tris-NTA lipids, without FtsZ) was 0.0639, the “Off binding rate koff” value ([2]; 0.40 % Tris-NTA lipids, + FtsZ) was 0.0309 and the “Off binding rate koff” value ([2]; 0.40 % Tris-NTA lipids, without FtsZ) was 0.0536. For the same molecule, the “Off binding rate koff” value ([2]; 0.60 % Tris-NTA lipids, + FtsZ) was 0.0489, the “Off binding rate koff” value ([2]; 0.60 % Tris-NTA lipids, without FtsZ) was 0.0398 and the “Off binding rate koff” value ([2]; […] Tris-NTA lipids, + FtsZ) was 0.0386. The “Off binding rate koff” value ([2]; […] Tris-NTA lipids, without FtsZ) was 0.0644 and the “PCC His-tagged FtsA/FtsZ” value [3] was 0.63 ± 0.02.
